Assay results: patent US20230048360A1

Legend:
[1] = target: cell surface-bound human GPC3 on GPC3+ HepG2 cells (human) (UniProt P51654); test: FACS, control (helper) phage on GPC3+ HepG2 cells, anti-M13 then PE anti-mouse IgG; same sample in FIGS. 3A-3D
[2] = target: cell surface-bound human GPC3 on GPC3+ HepG2 cells (human) (UniProt P51654); test: FACS, helper phage on GPC3+ HepG2 cells, mouse anti-M13 then PE anti-mouse IgG; same sample shown in all panels of FIGS. 1A-1G
[3] = target: cell surface-bound human GPC3 on GPC3+ HepG2 cells (human) (UniProt P51654); test: FACS, control (helper) phage on GPC3+ HepG2 cells, anti-M13 then PE anti-mouse IgG; same sample in FIGS. 2A-2E
[4] = target: cell surface-bound human GPC3 on GPC3+ HepG2 cells (human) (UniProt P51654); test: FACS, control mIgG1 on GPC3-positive HepG2 cells, PE anti-mouse IgG (H and L)

Substance	Median : PE-A [1]	Median : PE-A [2]	Median : PE-A [3]	Median : PE-A [4]
Negative control (helper phage)	106	99.4	556	
control mIgG1 (antibody)				93.8
